According to publication PMC3855908 (Traffic (Copenhagen, Denmark), 2013):

T1: Gal4 DBD-Pan1^792–948 (yeast, UniProt P32521 792-948)
T1 sequence (looked up): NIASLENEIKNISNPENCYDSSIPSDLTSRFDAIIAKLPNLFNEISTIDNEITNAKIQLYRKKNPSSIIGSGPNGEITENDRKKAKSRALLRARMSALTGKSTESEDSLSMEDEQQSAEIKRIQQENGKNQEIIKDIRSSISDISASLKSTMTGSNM

T2: Gal4 DBD-Pan1^687–846 (yeast, UniProt P32521 687-846)
T2 sequence (looked up): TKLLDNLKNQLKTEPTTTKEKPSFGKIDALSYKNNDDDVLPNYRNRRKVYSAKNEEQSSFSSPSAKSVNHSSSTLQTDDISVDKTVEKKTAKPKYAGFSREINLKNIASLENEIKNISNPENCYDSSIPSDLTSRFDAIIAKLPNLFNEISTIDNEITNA

T3: Gal4 DBD-Pan1^687–1190 (yeast, UniProt P32521 687-1190)
T3 sequence (looked up): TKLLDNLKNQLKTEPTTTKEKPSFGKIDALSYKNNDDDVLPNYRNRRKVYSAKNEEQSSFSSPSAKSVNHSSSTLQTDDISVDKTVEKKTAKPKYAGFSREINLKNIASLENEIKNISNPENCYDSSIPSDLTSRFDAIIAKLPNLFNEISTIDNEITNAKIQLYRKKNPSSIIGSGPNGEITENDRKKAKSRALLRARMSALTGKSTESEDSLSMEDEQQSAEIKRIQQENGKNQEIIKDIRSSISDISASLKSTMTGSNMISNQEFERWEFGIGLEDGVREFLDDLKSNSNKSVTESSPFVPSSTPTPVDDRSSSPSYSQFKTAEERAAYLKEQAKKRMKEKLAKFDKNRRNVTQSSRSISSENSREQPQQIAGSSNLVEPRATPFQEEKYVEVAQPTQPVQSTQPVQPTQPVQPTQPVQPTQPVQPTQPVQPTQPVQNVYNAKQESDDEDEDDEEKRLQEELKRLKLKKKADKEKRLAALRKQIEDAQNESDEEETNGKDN

T4: Pan1 (recombinantly purified, unpublished data) (yeast, UniProt P32521 1-1480)
T4 sequence (looked up): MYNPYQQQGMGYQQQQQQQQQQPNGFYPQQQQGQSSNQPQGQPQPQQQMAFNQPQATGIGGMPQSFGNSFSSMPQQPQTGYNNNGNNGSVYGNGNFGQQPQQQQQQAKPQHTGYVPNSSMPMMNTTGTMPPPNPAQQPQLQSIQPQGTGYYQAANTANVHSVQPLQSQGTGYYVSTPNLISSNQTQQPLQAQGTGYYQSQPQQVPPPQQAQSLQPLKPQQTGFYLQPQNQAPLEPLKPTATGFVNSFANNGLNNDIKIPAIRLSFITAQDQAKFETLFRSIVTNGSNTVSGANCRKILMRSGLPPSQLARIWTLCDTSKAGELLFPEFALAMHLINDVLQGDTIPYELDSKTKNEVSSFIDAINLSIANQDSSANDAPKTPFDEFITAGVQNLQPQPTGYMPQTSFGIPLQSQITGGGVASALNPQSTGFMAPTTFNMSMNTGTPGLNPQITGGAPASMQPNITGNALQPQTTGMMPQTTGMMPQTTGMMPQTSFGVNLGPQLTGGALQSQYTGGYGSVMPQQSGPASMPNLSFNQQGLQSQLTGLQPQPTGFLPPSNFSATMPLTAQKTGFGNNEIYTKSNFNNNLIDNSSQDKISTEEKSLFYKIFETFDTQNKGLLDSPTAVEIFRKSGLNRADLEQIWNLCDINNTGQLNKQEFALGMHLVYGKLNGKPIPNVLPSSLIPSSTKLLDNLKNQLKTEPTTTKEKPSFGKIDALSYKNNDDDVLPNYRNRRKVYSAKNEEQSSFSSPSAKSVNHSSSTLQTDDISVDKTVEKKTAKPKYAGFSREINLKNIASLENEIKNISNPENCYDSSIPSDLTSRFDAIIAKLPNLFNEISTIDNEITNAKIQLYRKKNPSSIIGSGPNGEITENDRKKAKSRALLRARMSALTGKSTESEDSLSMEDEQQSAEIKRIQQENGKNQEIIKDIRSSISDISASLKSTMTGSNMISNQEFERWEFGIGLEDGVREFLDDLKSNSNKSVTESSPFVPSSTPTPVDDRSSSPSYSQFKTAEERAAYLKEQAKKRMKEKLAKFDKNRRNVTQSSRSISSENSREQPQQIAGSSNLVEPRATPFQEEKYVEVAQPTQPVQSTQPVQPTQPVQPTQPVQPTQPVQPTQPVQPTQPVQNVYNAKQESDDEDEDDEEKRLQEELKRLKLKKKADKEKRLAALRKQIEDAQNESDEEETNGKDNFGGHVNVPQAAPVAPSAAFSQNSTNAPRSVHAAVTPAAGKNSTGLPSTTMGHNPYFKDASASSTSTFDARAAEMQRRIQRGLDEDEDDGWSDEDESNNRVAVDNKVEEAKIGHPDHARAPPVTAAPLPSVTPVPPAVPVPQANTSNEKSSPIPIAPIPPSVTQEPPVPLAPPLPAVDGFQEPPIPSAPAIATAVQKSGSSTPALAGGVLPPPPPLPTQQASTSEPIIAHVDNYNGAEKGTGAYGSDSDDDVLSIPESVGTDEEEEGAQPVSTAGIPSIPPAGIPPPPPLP

B1: Gal4 AD-End3^176–349 (domain or fragment, yeast, UniProt P39013 176-349, looked up)
chain: LINPQNLPSIDRDPTFYFIHCLRQRNDLGAEIPASLPNSLAEVCNKKQLSYDLRSSQPPTKRKEEANEVDNLRDNGQNSSSDSSGSNVLSNEDSIKQKYASLTDDQVANMREQLEGLLNYKKSEKTQGGSKLSKRINIRSITDDLDNIEQQVEVLENYLNNKRHELQALQAEIN
B2: End3 (recombinantly purified, unpublished data) (natural protein, yeast, UniProt P39013 1-349, looked up)
chain: MPKLEQFEIKKYWQIFSGLKPIENKVNHDQVLPILYNSKLDSSVLNKIWFLADIDDDDNLDFEEFVICMRLIFDMVNKNISSVPDELPDWLIPGSKVNLIKERKKRKQIENADLPPKKEIKVDWYMSPDDLNQYEKIYNSCAKLTDGTITFNELSTKLSTKFFNISKTDLNKVWSLINPQNLPSIDRDPTFYFIHCLRQRNDLGAEIPASLPNSLAEVCNKKQLSYDLRSSQPPTKRKEEANEVDNLRDNGQNSSSDSSGSNVLSNEDSIKQKYASLTDDQVANMREQLEGLLNYKKSEKTQGGSKLSKRINIRSITDDLDNIEQQVEVLENYLNNKRHELQALQAEIN

Assays:
Gal4 DBD-Pan1^792–948 = molecular target: T1, Gal4 DBD-Pan1^792–948; assay: two-hybrid
Gal4 DBD-Pan1^687–846 = molecular target: T2, Gal4 DBD-Pan1^687–846; assay: two-hybrid
Gal4 DBD-Pan1^687–1190 = molecular target: T3, Gal4 DBD-Pan1^687–1190; assay: two-hybrid
[1] = molecular target: T4, Pan1 (recombinantly purified, …)

Row | Binder | Miller Units (Gal4 DBD-Pan1^792–948) | Miller Units (Gal4 DBD-Pan1^687–846) | Miller Units (Gal4 DBD-Pan1^687–1190) | stoichiometry N [1]
1 | B1 | 99.7 Miller Units | 80.1 Miller Units | 412 Miller Units | 
2 | B2 |  |  |  | 1
